Experimental data as given in US20250313625A1.
Like-named read-outs stand apart in the source and are kept apart here.

How the values were obtained:
[1] = target: mFc tagged human LAG3 ECD recombinant protein (human) (UniProt P18627); assay: competitive ELISA: mFc tagged human LAG3 ECD binding to plate coated LSECtin ECD
[2] = target: mFc tagged human LAG3 ECD recombinant protein (human) (UniProt P18627); assay: competitive FACS: mFc tagged human LAG3 ECD binding to MHC II on Raji cells
[3] = target: mFc tagged human LAG3 ECD recombinant protein (human) (UniProt P18627); assay: as above; remark: listed apart in the source

mFc tagged human LAG3 ECD recombinant protein (human), sequence (P18627 23-450): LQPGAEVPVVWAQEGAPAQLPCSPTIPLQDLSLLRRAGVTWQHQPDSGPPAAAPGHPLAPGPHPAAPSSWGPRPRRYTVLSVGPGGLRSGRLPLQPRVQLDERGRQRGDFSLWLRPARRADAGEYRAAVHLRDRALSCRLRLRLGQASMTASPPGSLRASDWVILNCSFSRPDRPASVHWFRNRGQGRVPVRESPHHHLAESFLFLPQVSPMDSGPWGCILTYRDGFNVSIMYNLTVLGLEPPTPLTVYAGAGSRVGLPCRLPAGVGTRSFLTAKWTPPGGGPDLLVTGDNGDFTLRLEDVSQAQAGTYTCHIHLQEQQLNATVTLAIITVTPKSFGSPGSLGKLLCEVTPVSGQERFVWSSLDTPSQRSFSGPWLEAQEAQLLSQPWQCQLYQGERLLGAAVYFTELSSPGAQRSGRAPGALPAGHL

- %Blocking at 4 nM [1]: 1.3%
- %Blocking at 20 nM [1]: 5.6%
- %Blocking at 100 nM [1]: 7.4%
- %Blocking at 2 nM [2]: 5.7%
- %Blocking at 8 nM [2]: 3.4%
- %Blocking at 8 nM [3]: 10.9%
Substance: hIgG4 (antibody)
